{
  "source": "paper PMC6002859",
  "target": "Plk1 (UniProt P53350)",
  "test": "Myc-PP6R2 IP, Plk1 Western blot",
  "conditions": "reference: wild type; sites S771",
  "data": [
    {"substance": "PP6R2 (SAPS2) (from UniProt O75170) S771A (PBD2 mutant)", "values": [
      {"measurement": "binding against the reference", "value": "lost"}
    ]}
  ]
}
